Reference: paper doi:10.1101/2020.02.28.970509

Tests used:
Experiment in all cases: fluorescence anisotropy
A3H Hap I K117E/K121E = A3H Hap I K117E/K121E (human, UniProt Q6NTF7 1-200, K117E;K121E)
A3H Hap I K117E = A3H Hap I K117E (human, UniProt Q6NTF7 1-200, K117E)
A3H Hap II = A3H Hap II (human, UniProt Q6NTF7 1-181, G105R;K121D;E178D)
A3H Hap VII = A3H Hap VII (human, UniProt Q6NTF7 1-200, G105R)
Sequence of A3H Hap VII (Q6NTF7 whole entry G105R): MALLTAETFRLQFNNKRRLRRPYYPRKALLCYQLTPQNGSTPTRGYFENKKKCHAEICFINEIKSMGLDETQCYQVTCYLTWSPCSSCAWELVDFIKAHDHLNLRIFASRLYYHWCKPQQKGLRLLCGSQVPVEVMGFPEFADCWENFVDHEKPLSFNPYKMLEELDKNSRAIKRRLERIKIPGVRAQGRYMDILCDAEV

Sequence of A3H Hap II (Q6NTF7 1-181 G105R/K121D/E178D): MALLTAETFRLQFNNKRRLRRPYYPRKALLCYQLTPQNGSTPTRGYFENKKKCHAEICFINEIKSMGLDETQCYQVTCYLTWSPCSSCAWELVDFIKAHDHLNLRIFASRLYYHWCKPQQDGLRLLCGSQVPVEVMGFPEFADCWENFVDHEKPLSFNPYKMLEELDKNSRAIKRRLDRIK
Sequence of A3H Hap I K117E/K121E (Q6NTF7 whole entry K117E/K121E): as the sequence (Q6NTF7 whole entry G105R) above, with R105G, K117E, K121E counted along it
Sequence of A3H Hap I K117E (Q6NTF7 whole entry K117E): as the sequence (Q6NTF7 whole entry G105R) above, with R105G, K117E counted along it

B1: 118 nt ssDNA (ssDNA)
DNA: GAATATAGTTTTTAGCTCAAAGTAAGTGAAGATAATTTAGAGAGTTGTAATGTGATATATGTGTATGAAAGATATAAGACTCAAAGTGAAAAGTTGTTAATGTGTGTAGATATGTTAA
modifications: internal fluorescein-dT at position 37 (between S1 and S2)
A3H Hap I K117E/K121E
  Kd: 1240 ± 88 nM
A3H Hap I K117E
  Kd: 3000 ± 1770 nM
A3H Hap II
  Kd: 492 ± 28 nM
A3H Hap VII
  Kd: 522 ± 4 nM
